Results: publication PMC5736629, “Allosteric modulation of protein-protein interactions by individual lipid binding events” (Nature Communications, 2017)

T1: ammonium channel (AmtB) from Escherichia coli (Escherichia coli, UniProt P69681 23-428)
T1 construct: Ammonium channel AmtB, Escherichia coli, wild-type; Expressed as pelB signal peptide - 10x His - MBP - TEV site - AmtB from pET15b; tagless after TEV cleavage; also called ammonia channel; AmtB wild-type; source: E. coli C41(DE3), purified (membranes extracted with octyl glucoside, HisTrap, TEV cleavage, reverse HisTrap); for native MS co-purified with stGlnK (StrepTrap, Superdex 200 Increase); …
T1 sequence: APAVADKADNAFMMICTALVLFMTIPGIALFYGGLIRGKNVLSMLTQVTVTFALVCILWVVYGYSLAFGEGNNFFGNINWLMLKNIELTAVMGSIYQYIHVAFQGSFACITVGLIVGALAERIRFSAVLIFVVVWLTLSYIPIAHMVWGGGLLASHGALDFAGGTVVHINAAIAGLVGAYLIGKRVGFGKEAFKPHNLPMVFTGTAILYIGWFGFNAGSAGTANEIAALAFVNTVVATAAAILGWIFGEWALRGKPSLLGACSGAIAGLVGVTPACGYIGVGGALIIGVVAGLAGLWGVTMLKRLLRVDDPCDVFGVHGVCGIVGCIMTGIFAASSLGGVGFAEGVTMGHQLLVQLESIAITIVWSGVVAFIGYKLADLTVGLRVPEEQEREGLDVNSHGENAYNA

T2: ammonium channel (AmtB) from Escherichia coli, wild-type, tagless (E. coli, UniProt P69681 23-428)
T2 construct: AmtB, ammonium channel, Escherichia coli, wild-type; expressed behind a pelB secretion signal, 10x His-tag, MBP and a TEV site, all removed; also called ammonia channel; source: E. coli C41(DE3), extracted from membranes with octyl glucoside, purified (HisTrap, TEV cleavage, reverse HisTrap); not shown: 10x His-tag, N-terminal, cleaved
T2 sequence: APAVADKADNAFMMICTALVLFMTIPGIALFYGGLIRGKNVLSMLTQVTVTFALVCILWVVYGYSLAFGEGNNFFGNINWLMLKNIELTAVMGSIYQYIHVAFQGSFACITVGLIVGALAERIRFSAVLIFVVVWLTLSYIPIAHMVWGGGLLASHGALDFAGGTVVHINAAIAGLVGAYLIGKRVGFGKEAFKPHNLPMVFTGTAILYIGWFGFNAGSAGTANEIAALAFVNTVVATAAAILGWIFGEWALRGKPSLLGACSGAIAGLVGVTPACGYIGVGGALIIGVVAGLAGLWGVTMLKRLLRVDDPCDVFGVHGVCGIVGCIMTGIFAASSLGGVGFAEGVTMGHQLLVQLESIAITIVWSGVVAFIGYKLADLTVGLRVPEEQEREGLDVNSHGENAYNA


Key:
Conditions in all cases: both partners purified
[1] = target: T1, ammonium channel (AmtB) from …; test: native MS; AmtB-GlnK at 2 uM titrated with DMPG (14:0); 200 mM ammonium acetate pH 7.4, 0.5% C8E4, 50 uM ADP; global fit of the equilibrium-coupled AmtB-GlnK-lipid binding model; apparent constants
[2] = target: T1, ammonium channel (AmtB) from …; test: native MS; AmtB-GlnK at 2 uM titrated with POPG; 200 mM ammonium acetate pH 7.4, 0.5% C8E4, 50 uM ADP, 298 K; global fit of the equilibrium-coupled AmtB-GlnK-lipid binding model; apparent constants
[3] = target: T1, ammonium channel (AmtB) from …; test: native MS; AmtB-GlnK at 2 uM titrated with TOCDL (cardiolipin); 200 mM ammonium acetate pH 7.4, 0.5% C8E4, 50 uM ADP, 298 K; global fit of the equilibrium-coupled AmtB-GlnK-lipid binding model; apparent constants
[4] = target: T1, ammonium channel (AmtB) from …; test: native MS; AmtB-GlnK at 2 uM titrated with DOPE (trans, 18:1); 200 mM ammonium acetate pH 7.4, 0.5% C8E4, 50 uM ADP; global fit of the equilibrium-coupled AmtB-GlnK-lipid binding model; apparent constants
[5] = target: T1, ammonium channel (AmtB) from …; test: native MS; AmtB-GlnK at 2 uM titrated with POPS; 200 mM ammonium acetate pH 7.4, 0.5% C8E4, 50 uM ADP, 298 K; global fit of the equilibrium-coupled AmtB-GlnK-lipid binding model; apparent constants
[6] = target: T1, ammonium channel (AmtB) from …; test: native MS; AmtB-GlnK at 2 uM titrated with DLPG (12:0); 200 mM ammonium acetate pH 7.4, 0.5% C8E4, 50 uM ADP; global fit of the equilibrium-coupled AmtB-GlnK-lipid binding model; apparent constants
[7] = target: T1, ammonium channel (AmtB) from …; test: native MS; AmtB-GlnK at 2 uM titrated with POPA; 200 mM ammonium acetate pH 7.4, 0.5% C8E4, 50 uM ADP, 298 K; global fit of the equilibrium-coupled AmtB-GlnK-lipid binding model; apparent constants
[8] = target: T1, ammonium channel (AmtB) from …; test: native MS; AmtB-GlnK at 2 uM titrated with POPC; 200 mM ammonium acetate pH 7.4, 0.5% C8E4, 50 uM ADP, 298 K; global fit of the equilibrium-coupled AmtB-GlnK-lipid binding model; apparent constants
[9] = target: T1, ammonium channel (AmtB) from …; test: native MS; AmtB-GlnK at 2 uM titrated with POPE; 200 mM ammonium acetate pH 7.4, 0.5% C8E4, 50 uM ADP, 298 K; global fit of the equilibrium-coupled AmtB-GlnK-lipid binding model; apparent constants
[10] = target: T1, ammonium channel (AmtB) from …; test: native MS; AmtB-GlnK at 2 uM titrated with DOPE (cis, 18:1); 200 mM ammonium acetate pH 7.4, 0.5% C8E4, 50 uM ADP; global fit of the equilibrium-coupled AmtB-GlnK-lipid binding model; apparent constants
[11] = target: T1, ammonium channel (AmtB) from …; test: native MS; AmtB-GlnK at 2 uM titrated with SOPE (18:0-18:1, cis); 200 mM ammonium acetate pH 7.4, 0.5% C8E4, 50 uM ADP; global fit of the equilibrium-coupled AmtB-GlnK-lipid binding model; apparent constants
[12] = target: T1, ammonium channel (AmtB) from …; test: native MS; AmtB-GlnK at 2 uM titrated with DPPG (16:0); 200 mM ammonium acetate pH 7.4, 0.5% C8E4, 50 uM ADP; global fit of the equilibrium-coupled AmtB-GlnK-lipid binding model; apparent constants
[13] = target: T2, ammonium channel (AmtB) from …; test: native MS; ADP titration series; at and above 100 uM ADP (asymptote); AmtB-GlnK 2 uM, 200 mM ammonium acetate pH 7.4, 0.5% C8E4

Kd [1] [nM] | Kd [2] [nM] | Kd [3] [nM] | Kd [4] [nM] | Kd [5] [nM] | Kd [6] [nM] | Kd [7] [nM] | Kd [8] [nM] | Kd [9] [nM] | Kd [10] [nM] | Kd [11] [nM] | Kd [12] [nM] | Kd [13] [nM] | Binder
551 | 540 | 517 | 556 | 500 | 522 | 517 | 486 | 504 | 517 | 528 | 521 | – | Strep-tag II-tagged GlnK (stGlnK), Y51F (natural protein, Escherichia coli, Nitrogen regulatory protein GlnK, Escherichia coli; Expressed from pET28b; Y51F prevents uridylylation by GlnD; source: E. coli ArcticExpress (DE3) RIL, purified (StrepTrap HP, Superdex 75)) MKLVTVIIKPFKLEDVREALSSIGIQGLTVTEVKGFGRQKGHAELYRGAEFSVNFLPKVKIDVAIADDQLDEVIDIVSKAAYTGKIGDGKIFVAELQRVIRIRTGEADEAAL
– | – | – | – | – | – | – | – | – | – | – | – | ~80 | Strep-tag II-tagged GlnK (stGlnK), Y51F (natural protein, E. coli, GlnK, nitrogen regulatory protein (PII-2), Escherichia coli, with the point mutation Y51F that prevents uridylylation by GlnD; source: E. coli ArcticExpress (DE3) RIL, purified (StrepTrap, Superdex 75)) MKLVTVIIKPFKLEDVREALSSIGIQGLTVTEVKGFGRQKGHAELYRGAEFSVNFLPKVKIDVAIADDQLDEVIDIVSKAAYTGKIGDGKIFVAELQRVIRIRTGEADEAAL
